Laboratory results published in US20220306751A1 (MYTHIC THERAPEUTICS, published 2022).

T1: CD123 Protein, His Tag, Acro Biosciences Cat. No. ILA-H52H6 (Homo sapiens (Human), UniProt P26951 19-305)
T1 construct: Bought protein; not shown: His tag
T1 sequence: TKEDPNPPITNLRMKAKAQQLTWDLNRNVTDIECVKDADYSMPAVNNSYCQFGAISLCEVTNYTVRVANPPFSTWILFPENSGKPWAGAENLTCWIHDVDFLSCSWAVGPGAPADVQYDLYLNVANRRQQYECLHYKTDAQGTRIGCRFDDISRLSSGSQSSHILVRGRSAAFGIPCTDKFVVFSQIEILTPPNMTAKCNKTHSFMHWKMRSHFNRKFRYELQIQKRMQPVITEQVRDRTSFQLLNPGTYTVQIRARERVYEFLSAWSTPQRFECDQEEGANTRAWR


Biological target: T1, CD123 Protein, His Tag, Acro …
Assay: BLI, IgG on anti-human Fc sensor, 50 nM CD123, pH 7.4 and pH 5.4
In short: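 Single His/Ala heavy-chain CDR variants were expressed in Expi293 and captured from diluted supernatant on anti-human Fc sensors. By BLI, association with 50 nM His-tagged CD123 ran for 120 s and dissociation for 300–600 s, all in PBST pH 7.4. The full cycle was repeated separately in PBST pH 5.4.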

Binder	binding result
MYT2756 (antibody, V domains shown, IgG) VH: QVQLVQSGAEVKKPGASVKVSCKASGHIFTSSIMHWVRQAPGQGLEWIGYIKPYNDGTKYNEKFKGRATLTSDRSTSTAYMELSSLRSEDTAVYYCAREGGNDYYDTMHYWGQGTLVTVSS VL: DIQMTQSPSSLSASVGDRVTITCRASQDINSYLSWFQQKPGKAPKTLIYRVNRLVDGVPSRFSGSGSGNDYTLTISSLQPEDFATYYCLQYDAFPYTFGQGTKVEIK	binds
MYT2764 (antibody, V domains shown, IgG) VH: QVQLVQSGAEVKKPGASVKVSCKASGHIFTSSIMAWVRQAPGQGLEWIGYIKPYNDGTKYNEKFKGRATLTSDRSTSTAYMELSSLRSEDTAVYYCAREGGNDYYDHMDYWGQGTLVTVSS VL: DIQMTQSPSSLSASVGDRVTITCRASQDINSYLSWFQQKPGKAPKTLIYRVNRLVDGVPSRFSGSGSGNDYTLTISSLQPEDFATYYCLQYDAFPYTFGQGTKVEIK	binds
MYT2762 (antibody, V domains shown, IgG) VH: QVQLVQSGAEVKKPGASVKVSCKASGYIFTSSIMHWVRQAPGQGLEWIGYIKPYNDGTKYNEKFKGRATLTSDRSTSTAYMELSSLRSEDTAVYYCAREGGNDYYDHMHYWGQGTLVTVSS VL: DIQMTQSPSSLSASVGDRVTITCRASQDINSYLSWFQQKPGKAPKTLIYRVNRLVDGVPSRFSGSGSGNDYTLTISSLQPEDFATYYCLQYDAFPYTFGQGTKVEIK	binds
MYT2776 (antibody, V domains shown, IgG) VH: QVQLVQSGAEVKKPGASVKVSCKASGYIFTSSIMHWVRQAPGQGLEWIGYIKPYNDGTKYNEKFKGRATLTSDRSTSTAYMELSSLRSEDTAVYYCAREGGNDYYDTMDYWGQGTLVTVSS VL: DIQMTQSPSSLSASVGDRVTITCRASHDINSYLSWFQQKPGKAPKTLIYRVNRLVDGVPSRFSGSGSGNDYTLTISSLQPEDFATYYCLQYDAFPYTFGQGTKVEIK	binds
MYT2777 (antibody, V domains shown, IgG) VH: QVQLVQSGAEVKKPGASVKVSCKASGYIFTSSIMHWVRQAPGQGLEWIGYIKPYNDGTKYNEKFKGRATLTSDRSTSTAYMELSSLRSEDTAVYYCAREGGNDYYDTMDYWGQGTLVTVSS VL: DIQMTQSPSSLSASVGDRVTITCRASQHINSYLSWFQQKPGKAPKTLIYRVNRLVDGVPSRFSGSGSGNDYTLTISSLQPEDFATYYCLQYDAFPYTFGQGTKVEIK	binds
MYT2784 (antibody, V domains shown, IgG) VH: QVQLVQSGAEVKKPGASVKVSCKASGYIFTSSIMHWVRQAPGQGLEWIGYIKPYNDGTKYNEKFKGRATLTSDRSTSTAYMELSSLRSEDTAVYYCAREGGNDYYDTMDYWGQGTLVTVSS VL: DIQMTQSPSSLSASVGDRVTITCRASQDINSYLSWFQQKPGKAPKTLIYHVNRLVDGVPSRFSGSGSGNDYTLTISSLQPEDFATYYCLQYDAFPYTFGQGTKVEIK	binds
MYT2759 (antibody, V domains shown, IgG) VH: QVQLVQSGAEVKKPGASVKVSCKASGYIFTSSIMAWVRQAPGQGLEWIGYIKPYNDGTKYNEKFKGRATLTSDRSTSTAYMELSSLRSEDTAVYYCAREGGNDYYDTMHYWGQGTLVTVSS VL: DIQMTQSPSSLSASVGDRVTITCRASQDINSYLSWFQQKPGKAPKTLIYRVNRLVDGVPSRFSGSGSGNDYTLTISSLQPEDFATYYCLQYDAFPYTFGQGTKVEIK	binds
MYT2773 (antibody, V domains shown, IgG) VH: QVQLVQSGAEVKKPGASVKVSCKASGYIFTSSIMHWVRQAPGQGLEWIGYIKPYNDGTKYNEKFKGRATLTSDRSTSTAYMELSSLRSEDTAVYYCAREGGNDYYDTMDYWGQGTLVTVSS VL: DIQMTQSPSSLSASVGDRVTITCHASQDINSYLSWFQQKPGKAPKTLIYRVNRLVDGVPSRFSGSGSGNDYTLTISSLQPEDFATYYCLQYDAFPYTFGQGTKVEIK	binds
MYT2782 (antibody, V domains shown, IgG) VH: QVQLVQSGAEVKKPGASVKVSCKASGYIFTSSIMHWVRQAPGQGLEWIGYIKPYNDGTKYNEKFKGRATLTSDRSTSTAYMELSSLRSEDTAVYYCAREGGNDYYDTMDYWGQGTLVTVSS VL: DIQMTQSPSSLSASVGDRVTITCRASQDINSYHSWFQQKPGKAPKTLIYRVNRLVDGVPSRFSGSGSGNDYTLTISSLQPEDFATYYCLQYDAFPYTFGQGTKVEIK	binds
MYT2775 (antibody, V domains shown, IgG) VH: QVQLVQSGAEVKKPGASVKVSCKASGYIFTSSIMHWVRQAPGQGLEWIGYIKPYNDGTKYNEKFKGRATLTSDRSTSTAYMELSSLRSEDTAVYYCAREGGNDYYDTMDYWGQGTLVTVSS VL: DIQMTQSPSSLSASVGDRVTITCRAHQDINSYLSWFQQKPGKAPKTLIYRVNRLVDGVPSRFSGSGSGNDYTLTISSLQPEDFATYYCLQYDAFPYTFGQGTKVEIK	binds
MYT2778 (antibody, V domains shown, IgG) VH: QVQLVQSGAEVKKPGASVKVSCKASGYIFTSSIMHWVRQAPGQGLEWIGYIKPYNDGTKYNEKFKGRATLTSDRSTSTAYMELSSLRSEDTAVYYCAREGGNDYYDTMDYWGQGTLVTVSS VL: DIQMTQSPSSLSASVGDRVTITCRASQDHNSYLSWFQQKPGKAPKTLIYRVNRLVDGVPSRFSGSGSGNDYTLTISSLQPEDFATYYCLQYDAFPYTFGQGTKVEIK	binds
MYT2781 (antibody, V domains shown, IgG) VH: QVQLVQSGAEVKKPGASVKVSCKASGYIFTSSIMHWVRQAPGQGLEWIGYIKPYNDGTKYNEKFKGRATLTSDRSTSTAYMELSSLRSEDTAVYYCAREGGNDYYDTMDYWGQGTLVTVSS VL: DIQMTQSPSSLSASVGDRVTITCRASQDINSHLSWFQQKPGKAPKTLIYRVNRLVDGVPSRFSGSGSGNDYTLTISSLQPEDFATYYCLQYDAFPYTFGQGTKVEIK	binds
MYT2757 (antibody, V domains shown, IgG) VH: QVQLVQSGAEVKKPGASVKVSCKASGYIFTSSIMAWVRQAPGQGLEWIGYIKPYNDGTKYNEKFKGRATLTSDRSTSTAYMELSSLRSEDTAVYYCAREGGNDYHDTMDYWGQGTLVTVSS VL: DIQMTQSPSSLSASVGDRVTITCRASQDINSYLSWFQQKPGKAPKTLIYRVNRLVDGVPSRFSGSGSGNDYTLTISSLQPEDFATYYCLQYDAFPYTFGQGTKVEIK	binds

Further lines, results first:

binding result	Binder
binds	MYT2783 (antibody, V domains shown, IgG) VH: QVQLVQSGAEVKKPGASVKVSCKASGYIFTSSIMHWVRQAPGQGLEWIGYIKPYNDGTKYNEKFKGRATLTSDRSTSTAYMELSSLRSEDTAVYYCAREGGNDYYDTMDYWGQGTLVTVSS VL: DIQMTQSPSSLSASVGDRVTITCRASQDINSYLHWFQQKPGKAPKTLIYRVNRLVDGVPSRFSGSGSGNDYTLTISSLQPEDFATYYCLQYDAFPYTFGQGTKVEIK
binds	MYT2780 (antibody, V domains shown, IgG) VH: QVQLVQSGAEVKKPGASVKVSCKASGYIFTSSIMHWVRQAPGQGLEWIGYIKPYNDGTKYNEKFKGRATLTSDRSTSTAYMELSSLRSEDTAVYYCAREGGNDYYDTMDYWGQGTLVTVSS VL: DIQMTQSPSSLSASVGDRVTITCRASQDINHYLSWFQQKPGKAPKTLIYRVNRLVDGVPSRFSGSGSGNDYTLTISSLQPEDFATYYCLQYDAFPYTFGQGTKVEIK
binds	MYT2761 (antibody, V domains shown, IgG) VH: QVQLVQSGAEVKKPGASVKVSCKASGYIFTSSIMHWVRQAPGQGLEWIGYIKPYNDGTKYNEKFKGRATLTSDRSTSTAYMELSSLRSEDTAVYYCAREGGNDYHDTMHYWGQGTLVTVSS VL: DIQMTQSPSSLSASVGDRVTITCRASQDINSYLSWFQQKPGKAPKTLIYRVNRLVDGVPSRFSGSGSGNDYTLTISSLQPEDFATYYCLQYDAFPYTFGQGTKVEIK
binds	MYT2760 (antibody, V domains shown, IgG) VH: QVQLVQSGAEVKKPGASVKVSCKASGYIFTSSIMHWVRQAPGQGLEWIGYIKPYNDGTKYNEKFKGRATLTSDRSTSTAYMELSSLRSEDTAVYYCAREGGNDYHDHMDYWGQGTLVTVSS VL: DIQMTQSPSSLSASVGDRVTITCRASQDINSYLSWFQQKPGKAPKTLIYRVNRLVDGVPSRFSGSGSGNDYTLTISSLQPEDFATYYCLQYDAFPYTFGQGTKVEIK
binds	MYT2763 (antibody, V domains shown, IgG) VH: QVQLVQSGAEVKKPGASVKVSCKASGHIFTSSIMAWVRQAPGQGLEWIGYIKPYNDGTKYNEKFKGRATLTSDRSTSTAYMELSSLRSEDTAVYYCAREGGNDYHDTMDYWGQGTLVTVSS VL: DIQMTQSPSSLSASVGDRVTITCRASQDINSYLSWFQQKPGKAPKTLIYRVNRLVDGVPSRFSGSGSGNDYTLTISSLQPEDFATYYCLQYDAFPYTFGQGTKVEIK
binds	MYT2779 (antibody, V domains shown, IgG) VH: QVQLVQSGAEVKKPGASVKVSCKASGYIFTSSIMHWVRQAPGQGLEWIGYIKPYNDGTKYNEKFKGRATLTSDRSTSTAYMELSSLRSEDTAVYYCAREGGNDYYDTMDYWGQGTLVTVSS VL: DIQMTQSPSSLSASVGDRVTITCRASQDIHSYLSWFQQKPGKAPKTLIYRVNRLVDGVPSRFSGSGSGNDYTLTISSLQPEDFATYYCLQYDAFPYTFGQGTKVEIK
binds	MYT2774 (antibody, V domains shown, IgG) VH: QVQLVQSGAEVKKPGASVKVSCKASGYIFTSSIMHWVRQAPGQGLEWIGYIKPYNDGTKYNEKFKGRATLTSDRSTSTAYMELSSLRSEDTAVYYCAREGGNDYYDTMDYWGQGTLVTVSS VL: DIQMTQSPSSLSASVGDRVTITCRHSQDINSYLSWFQQKPGKAPKTLIYRVNRLVDGVPSRFSGSGSGNDYTLTISSLQPEDFATYYCLQYDAFPYTFGQGTKVEIK
